Measured values: paper PMC8481291 (Nature Communications, 2021)
Several values for one entry are separate records, joined by “and”; a condition that tells them apart may be missing. Identical values can stand only once.

What was measured:
[1] = target: tES–F116H(+) (Archaeoglobus fulgidus); assay: AUC; sedimentation of tES–F116H/POI samples (1 µM) in PBS, 20 °C, absorbance at 280 nm; POI loaded into tES by pH shift 5.8 to 8.0 and dialysis
[2] = target: tES–F116H(+) (Archaeoglobus fulgidus); assay: AUC
[3] = target: tES–F116H(+/–) (Archaeoglobus fulgidus); assay: AUC
[4] = target: tES–F116H(–) (Archaeoglobus fulgidus); assay: AUC
[5] = target: tES–F116H(+) (Archaeoglobus fulgidus); assay: AUC; remark: listed apart in the source
AUC = target: the molecule itself; assay: AUC

“Renilla luciferin 2-monooxygenase (from UniProt P27652 1-311) (enzyme)” was tested, and the stoichiometry N (rLuc per tES shell) [1] was 2 and 1.

Molecule “Tumor protein 53, stabilized clone (from UniProt P04637 1-393) (natural protein)” has a stoichiometry N (p53 per tES shell) [2] of 1 and a stoichiometry N (p53 per tES shell) [3] of 1.

Molecule rFasxiator (natural protein) has a stoichiometry N (rFasxiator per tES shell) [4] of 3.

B1: Shrimp alkaline phosphatase (enzyme, UniProt Q9BHT8 1-475, looked up)
chain: KAYWNKDAQDALDKQLGIKLREKQAKNVIFFLGDGMSLSTVTAARIYKGGLTGKFEREKISWEEFDFAALSKTYNTDKQVTDSAASATAYLTGVKTNQGVIGLDANTVRTNCSYQLDESLFTYSIAHWFQEAGRSTGVVTSTRVTHATPAGTYAHVADRDWENDSDVVHDREDPEICDDIAEQLVFREPGKNFKVIMGGGRRGFFPEEALDIEDGIPGEREDGKHLITDWLDDKASQGATASYVWNRDDLLAVDIRNTDYLMGLFSYTHLDTVLTRDAEMDPTLPEMTKVAIEMLTKDENGFFLLVEGGRIDHMHHANQIRQSLAETLDMEEAVSMALSMTDPEETIILVTADHGHTLTITGYADRNTDILDFAGISDLDDRRYTILDYGSGPGYHITEDGKRYEPTEEDLKDINFRYASAAPKHSVTHDGTDVGIWVNGPFAHLFTGVYEENYIPHALAYAACVGTGRTFCDEK
notes: also called sAP; AP
In the case of B1, the stoichiometry N (sAP per tES shell) [5] is reported as 1 and the “stoichiometry N” value (AUC) is reported as 2.
